For this data set, the system named is MS2 coat protein. As to the kind of experiment: apparent KD of MS2 coat protein; designed switch direction (-1 OFF switch, 1 ON switch): -1; higher = weaker reporter binding. In a few lines: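 Designed RNA switches with common flanks were made on Illumina chips by stalled E. coli RNA polymerase. Titration with SNAP-549-labelled MS2 coat protein doubled from 0.7 or 1.5 nM up to 3 µM. Apparent KD is each design's median over clusters after curve-fitting normalised fluorescence.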

[1] abbreviates: input ligand: microRNA oligo, concentration not stated.
[2] abbreviates: Eterna round: R95, input ligand: FMN 200 uM.
Setting [3] is: Eterna round: R95, input ligand: microRNA oligo, concentration not stated.
The mark [4] stands for this setting: Eterna round: R95, input ligand: none.

Take “AAUUAAUAUCAGGAUAUGACGUGCCUCGGCACGUCAGAAGGGAUGACAUGAGGAUCACCCAUGUGAUCAAUUAA [E6/1-A2] (Eterna round: R97, puzzle: Exclusion 6)”: the “apparent KD of MS2 coat protein” value turned out to be 153 nM (input ligand: FMN 200 uM) and 28.7 nM (input ligand: none).

Take “AAUUAAUAUCAGGAUAUGACGUGCUGCGGCACGUCAGAAGGGAUGACAUGAGGAUCACCCAUGUGAUCAAUUAA [E6/1-A3] (Eterna round: R97, puzzle: Exclusion 6)”: the “apparent KD of MS2 coat protein” value by setting is: (input ligand: FMN 200 uM) 114 nM; (input ligand: none) 22.1 nM.

As for “AAUUAGUAUGUGAGGAUAUUGAUGUAAUGACGGUUUAAGAAGGCACAUGAGGAUCACCCAUGUAAAUGAUCACG [JR_BMEx4_Sub008] (Eterna round: R97, puzzle: Brourd's mod of Exclusion 4)”, the “apparent KD of MS2 coat protein” value by setting is: (input ligand: FMN 200 uM) 74.4 nM; (input ligand: none) 37.7 nM.

In the case of “AAUUAUUAUUGAGGAUAUCGUAUUGAAACAAUAUGAGAAGGCGGGAUAAACAUGAGGAUCACCCAUGUGAGCCUGAUGCUUGUG [Ex NG1 #40] (Eterna round: R96, puzzle: Exclusion NG 1)”, under setting [1], the “apparent KD of MS2 coat protein” value came to 15.3 nM.

As to “AAUUUACAUGAGGAUCACCCAUGUGAGGAUAUAUGCAAAGAAGUGUUAGUAAGAAAGCAUAGAAGGCGCGUGAU [JR_Exc1_Sub041] (Eterna round: R97, puzzle: Exclusion 1)”, the “apparent KD of MS2 coat protein” value reads like this: (input ligand: FMN 200 uM) 64.6 nM; (input ligand: none) 47.8 nM.

Turning to “AAUUUCGCGGCCCGAUGACUGCGUACUGACAGUGAGCUCACAUGAGGAUCACCCAUGUUUUUUGCUCGUAAAUCAGA [Quarat] (Eterna round: R96, puzzle: Sensor v2, turn-off variant 2)”, the “apparent KD of MS2 coat protein” value (input ligand: FMN 200 uM) is 13.6 nM, the “apparent KD of MS2 coat protein” value under setting [1] came to 12.3 nM and the “apparent KD of MS2 coat protein” value (input ligand: none) came to 16.1 nM.

In the case of “AAUUUUUAUGUAAGGAUAUAAGUUUGGAAACGGGCUUAGAAGGUACAUGAGGAUCACCCAUGUAUAAUGUGCGU [-20.6, -20.4 kcal, 32% A] (Eterna round: R97, puzzle: Brourd's mod of Exclusion 4)”, the “apparent KD of MS2 coat protein” value runs as follows: (input ligand: FMN 200 uM) 52 nM; (input ligand: none) 23.2 nM.

Take “ACAAGCUCUUUGCAACUUAGUUUUGUUGCUUCGUAGGUAACAUGAGGAUCACCCAUGUAAGACUGAUGUCGUCUUAU [JR_SV3TOV2_Sub086] (Eterna round: R96, puzzle: Sensor v3, turn-off variant 2)”: the “apparent KD of MS2 coat protein” value worked out at 36.8 nM (input ligand: FMN 200 uM), 20.6 nM under setting [1] and 38.2 nM (input ligand: none).

Take “ACAAGCUCUUUGCAACUUAGUUUUGUUGCUUCGUAGGUAACAUGAGGAUCACCCAUGUAAGACUGAUGUCGUCUUAU [JR_SV3TOV2_Sub086] (puzzle: Sensor v3, turn-off variant 2)”: the “apparent KD of MS2 coat protein” value runs as follows: under setting [2], 33.1 nM; under setting [3], 21.4 nM; under setting [4], 36.8 nM.

For “ACAAGCUUAAUCUGUAUGAACAUGAGGAUCACCCAUGUAUAAGGGAAUUCUUUUGGGUUUUUUAUAGCUCGUCUUAU [JR_STOV1_Sub020] (Eterna round: R97, puzzle: Sensor, turn-off variant 1)”, the “apparent KD of MS2 coat protein” value by setting is: (input ligand: FMN 200 uM) 280 nM; (input ligand: none) 337 nM.

Turning to “ACAAGCUUAUUGCUCGGGUACAUGAGGAUCACCCAUGUUAGUGAUUAUAGAGAAUGUGUUGACGUGCGCUGCAGGUU [JR_SV3TOV1_Sub079] (puzzle: Sensor v3, turn-off variant 1)”, the “apparent KD of MS2 coat protein” value runs as follows: under setting [2], 75.5 nM; under setting [3], 46 nM; under setting [4], 92.2 nM.

For the sequence “ACAAGCUUUACGAUCCUCAACAUGAGGAUCACCCAUGUGCUCGUAUUGUUUAGUACUAUCACGAAAGUGAUAGUACA [Sensor, turn off variant 1 v.6] (Eterna round: R97, puzzle: Sensor, turn-off variant 1)”, the “apparent KD of MS2 coat protein” value runs as follows: (input ligand: FMN 200 uM) 1430 nM; (input ligand: none) 943 nM.

Regarding “ACAAGCUUUUAGAUUCUUAACAUGAGGAUCACCCAUGUGCUCGUCUUACCGGCCGGCGGGCCGCCGGCCGGGCUUGU (Eterna round: R97, puzzle: Sensor, turn-off variant 1)”, the “apparent KD of MS2 coat protein” value by setting is: (input ligand: FMN 200 uM) 18.5 nM; (input ligand: none) 18.5 nM.

Take “ACAAGCUUUUAGAUUUUCAACAUGAGGAUCACCCAUGUUCGUCUUAUGCUAGUGCGAGUGCGGUGUACUCGUAUUAG [JL TOV1 3.81 sellena mod] (Eterna round: R97, puzzle: Sensor, turn-off variant 1)”: the “apparent KD of MS2 coat protein” value was determined as 18.2 nM (input ligand: FMN 200 uM) and 16.8 nM (input ligand: none).

On to “ACAAGCUUUUUCAUAUCUAACAUGAGGAUCACCCAUGUUUAAGCAAUUAUGUUUGGGCUCUUUUGAGCUCGUCUUAU [JR_STOV1_Sub047] (Eterna round: R97, puzzle: Sensor, turn-off variant 1)”, for which the “apparent KD of MS2 coat protein” value reads like this: (input ligand: FMN 200 uM) 13.8 nM; (input ligand: none) 12.3 nM.

Turning to “ACAAGCUUUUUCGUGGGUGACAUGAGGAUCACCCAUGUUUGCCGCGUCUUGUCGUCGUGGACCUGUGGUCCAUGACG [Small mod of -44.6, -64.9 by Sellena] (Eterna round: R97, puzzle: Sensor, turn-off variant 1)”, the “apparent KD of MS2 coat protein” value (input ligand: FMN 200 uM) stood at 137 nM and the “apparent KD of MS2 coat protein” value (input ligand: none) came to 153 nM.

Consider “ACAAGCUUUUUGCUCGUCUUGUAGAAACGUGAGAGCGAGACAUGAGGAUCACCCAUGUAAAGGCAGUAGGUGGAGAU [JR_SV3TOV2_Sub026] (puzzle: Sensor v3, turn-off variant 2)”, for which the “apparent KD of MS2 coat protein” value by setting is: under setting [2], 36.9 nM; under setting [3], 64.4 nM; under setting [4], 58.2 nM.

For the sequence “ACAAGCUUUUUGCUCGUUUACAUGAGGAUCACCCAUGUGUCUUCACGCCCGGGCCCGGGCAAGCCCGGGCCCGGGCG [-47, -77, A 16%] (Eterna round: R97, puzzle: Sensor, turn-off variant 1)”, the “apparent KD of MS2 coat protein” value came out at 45.6 nM (input ligand: FMN 200 uM) and 45 nM (input ligand: none).

“ACAAGCUUUUUGUUCGUCUUAUACACUCCUAAUAAGACAACAUGAGGAUCACCCAUGUAACAAACAAGAACUCAUGU [Sesor Array 6 - Jieux - Sensor v3, turn-off variant 2] (puzzle: Sensor v3, turn-off variant 2)”: the “apparent KD of MS2 coat protein” value runs as follows: under setting [2], 55.1 nM; under setting [3], 359 nM; under setting [4], 72.5 nM.

As for “ACAAGCUUUUUGUUCGUCUUAUACACUCCUAAUAAGACAACAUGAGGAUCACCCAUGUAACAAAGACGAACUCAUGU [Sesor Array 8 - Jieux - Sensor v3, turn-off variant 2] (puzzle: Sensor v3, turn-off variant 2)”, the “apparent KD of MS2 coat protein” value was found to be 22.4 nM under setting [2], 257 nM under setting [3] and 19.9 nM under setting [4].

With “ACAAGCUUUUUGUUCGUCUUAUACACUCCUAAUAAGACAACAUGAGGAUCACCCAUGUAAGAAAUAAGAACUCAUGU [Sesor Array 4 - Jieux - Sensor v3, turn-off variant 2] (puzzle: Sensor v3, turn-off variant 2)”, the “apparent KD of MS2 coat protein” value by setting is: under setting [2], 292 nM; under setting [3], 595 nM; under setting [4], 381 nM.

With “ACACAGCGAGGAUAUACAUGAGGAUCACCCAUGUGGUGGCAGUUACGGUAGGACUAGUGUAGAAGGUGCAGUGG [EX3 #29] (Eterna round: R97, puzzle: Exclusion 3)”, the “apparent KD of MS2 coat protein” value (input ligand: FMN 200 uM) stood at 485 nM and the “apparent KD of MS2 coat protein” value (input ligand: none) came out at 800 nM.

For the origin of these results see the supplement of paper PMC9170038.
